Laboratory results: patent publication US20260374897 (published 2026)

T1: mouse FAP (cell surface) (mouse, UniProt P97321)
T1 chain: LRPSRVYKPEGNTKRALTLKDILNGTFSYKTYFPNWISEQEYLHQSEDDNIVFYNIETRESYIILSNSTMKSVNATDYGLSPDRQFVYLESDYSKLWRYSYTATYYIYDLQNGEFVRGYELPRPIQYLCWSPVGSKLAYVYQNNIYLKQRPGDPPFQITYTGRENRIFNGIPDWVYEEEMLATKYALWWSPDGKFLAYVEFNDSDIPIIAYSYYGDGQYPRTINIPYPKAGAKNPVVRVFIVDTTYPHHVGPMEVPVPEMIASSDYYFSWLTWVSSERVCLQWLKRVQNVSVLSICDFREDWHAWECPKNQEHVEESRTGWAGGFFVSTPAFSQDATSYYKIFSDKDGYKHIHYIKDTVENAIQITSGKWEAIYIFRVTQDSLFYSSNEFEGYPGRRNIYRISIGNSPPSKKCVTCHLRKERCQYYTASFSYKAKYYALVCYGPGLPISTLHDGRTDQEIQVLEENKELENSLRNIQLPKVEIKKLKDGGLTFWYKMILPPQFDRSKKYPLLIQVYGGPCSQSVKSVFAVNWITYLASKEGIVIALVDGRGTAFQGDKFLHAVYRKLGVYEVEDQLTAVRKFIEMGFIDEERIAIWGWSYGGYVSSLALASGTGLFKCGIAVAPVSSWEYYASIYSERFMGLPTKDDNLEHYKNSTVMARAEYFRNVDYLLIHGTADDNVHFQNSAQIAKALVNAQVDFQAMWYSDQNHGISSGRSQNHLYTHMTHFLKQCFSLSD

B1: Ab10-A297V3-2 FAP arm (antibody, V domains shown)
VH: QVQLQQSGVEVKKPGASVTVSCRASGYSFADHFIHWVRQAPGQGFQWMGWINPNRGVTHHAQDFQGRVAMTRDMSTDTVYMELTSLRSDDTAVYYCARDASLTARPYYFYGFDVWGQGTLVTVSS
VL: DIQMTQSPSSVSASVGDRVTITCRASQGISSWLAWYQQKPGKAPKLLIYAASSLQSGVPSRFSGSGSGTDFTLTISSLQPEDFATYYCQQANSFPPAFGQGTKVEIK
B2: Ab10-A297V3-4 FAP arm (antibody, V domains shown)
VH: B1 VH
VL: B1 VL

What was measured:
[1] = target: T1, mouse FAP (cell surface); experiment: FACS
[2] = target: human FAP (cell surface) (human, UniProt Q12884); experiment: FACS
Chain of human FAP (cell surface) (Q12884 26-760): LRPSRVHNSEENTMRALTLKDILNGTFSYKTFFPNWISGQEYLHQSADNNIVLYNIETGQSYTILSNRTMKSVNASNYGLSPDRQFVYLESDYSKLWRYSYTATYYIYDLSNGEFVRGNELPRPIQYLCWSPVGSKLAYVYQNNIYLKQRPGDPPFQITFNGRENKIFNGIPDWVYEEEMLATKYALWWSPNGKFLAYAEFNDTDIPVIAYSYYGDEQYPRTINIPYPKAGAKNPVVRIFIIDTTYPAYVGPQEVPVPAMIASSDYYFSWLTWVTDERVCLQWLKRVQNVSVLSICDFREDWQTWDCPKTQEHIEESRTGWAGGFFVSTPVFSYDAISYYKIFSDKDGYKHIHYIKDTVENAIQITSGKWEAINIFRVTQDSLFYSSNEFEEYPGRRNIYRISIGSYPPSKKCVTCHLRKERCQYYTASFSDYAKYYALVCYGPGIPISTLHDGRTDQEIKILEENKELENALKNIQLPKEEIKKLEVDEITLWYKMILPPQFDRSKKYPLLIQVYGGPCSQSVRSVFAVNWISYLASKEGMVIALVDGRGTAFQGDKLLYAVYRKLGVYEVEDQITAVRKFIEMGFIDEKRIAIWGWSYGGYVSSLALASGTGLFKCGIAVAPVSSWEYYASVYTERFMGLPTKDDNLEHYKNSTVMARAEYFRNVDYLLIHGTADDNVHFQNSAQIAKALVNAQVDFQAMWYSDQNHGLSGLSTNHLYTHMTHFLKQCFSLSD

[3] = target: human FAP ECD (human, UniProt Q12884); experiment: SPR
Chain of human FAP ECD (Q12884 26-760): as above

Binder | EC50 [1] | EC50 [2] | Kd [3]
B1 | 0.79 nM | 2.51 nM | 0.405 nM
B2 | 1.65 nM | 1.57 nM | 0.378 nM
